Reference: the DeepSol protein solubility set

assay: soluble on expression in E. coli; label from the status in PepcDB or PDB records

Sequence	soluble on expression in E. coli
MSLAQFSVNAQRFDPYKNFKFRIKWDGRYVAGVSKVSALKRTTEVVEHREGGDASNVRKSPGRTKYEPITMERGVTHDTEFEKWANKVWNYGSGMGAEVSLKDFRKDIIIEVYNEAGQLAIAYKVYRCWVSEYQALPELDANANAVAIQSMKLENEGWERDYDIGEPDEPTFTEPQEGHHHHHH	soluble
GMRGLIVDYAGVLDGTDEDQRRWRNLLAAAKKNGVGTVILSNDPGGLGAAPIRELETNGVVDKVLLSGELGVEKPEEAAFQAAADAIDLPMRDCVLVDDSILNVRGAVEAGLVGVYYQQFDRAVVEIVGLFGLEGEF	soluble
AVQRAKEVLEEISCYPENNDAKELKRILTQPHFMALLQTHDVVAHEVYSD	soluble
QTLTEEEVLKKLDKEQMRASFEDMRRIMPDLGFEAKGYALSFEQLAQLKIPVIVYLKYRKDDHFSVLRGIDGNTVLLADPSLGHVSMSRAQFLDAWQTREGNLAGKILAVIPKKAETISNKLFFTQHPKRQTEFTVGQIRQARAE	not soluble
MGSDKIHHHHHHMKTRADLFAFFDAHGVDHKTLDHPPVFRVEEGLEIKAAMPGGHTKNLFLKDAKGQLWLISALGETTIDLKKLHHVIGSGRLSFGPQEMMLETLGVTPGSVTAFGLINDTEKRVRFVLDKALADSDPVNFHPLKNDATTAVSQAGLRRFLAALGVEPMIVDFAAMEVVG	soluble
QAAPSQVVVIRQERAGQTSVSLLWQEPEQPNGIILEYEIKYYEKDKEMQSYSTLKAVTTRATVSGLKPGTRYVFQVRARTSAGCGRFSQAMEVETGKP	soluble
MAHHHHHHMLPSVMDRYESYDFGKELLSLLKTASSTPGAHMGVFTGMGLLLAKYRPEKLLEHVNMHAKKINTHKMIAACEEYHLWLVLRVLHVNNEDWLAAATTMMHHHVDAWDHDVFKTVVSHLGSSDLVYNSISFYIQTNPQLLDDFLTSMFKTLDPERVLLEVKKLAPVHFIRQYLESAQERNSRRVNEAINKLYMEEEDFTALRDSVERFDNFDSAELSAELEKMELFEFRKIALFLHRRNKRFTHAVAVAKENKLYQDAIETAAESANPQIVEDLLDFFVVDHPDCFVACLYTCYDYLTPQVVMEKAWLNKRTDLAMPYFIQVIQDYTTKLSRMEKSMMDAQQLAKEAARRAGPLHTGANDPLMIQAGPANPMGGAMPMPMPMPMPMPMMGGVPPGNYGPPPQFDNRRPY	not soluble
MSLGSGHAGKARSAVTTTDADWKPVADALGRSGKLGDNNTAYRINLPRNDLHITSYGVDIKPGLSLGGYAAFARYDNNETLLMGDLVITEEELPKVTDALQAHGIAQTALHKHLLQQDPPVWWTHIHGMGDAARLAQGLKAALDATTIGPPTPPPARQPPVDIDVAGVDQALGRKGTQDGGLMKYSIPRKDTIIEDGHVLPAVSLNLTTVINFQPVGRGRAAINGDFILIAPEVQEVIRAMRAGNITIVELHNHGLTEEPRLFYMHYWAVDDAVTLARALRPAMDATNLQSEGHHHHHH	soluble
MAHHHHHHSLAPLISVLDLTPVSTGQQPGEALRHTLELAEVADSYQYTRFWIAEHHNSGAFVSAATEILIALAAARTGRIRVGSGGVMLPNHSPLKVAENFMSLEALFPGRIDLGLGRAPGTDGRTALALRRSREALAADDFPTQIALLRAFAGETPWPAGSVFDGVLAEPRGVKLPPLWILGSSLYGAQLAGELGVGYAFAYHFSQEDPAVAVQTYHRHFRPGPLAEPYAILGVNALAAPTEDEARDLSLTSAALSLGILSGQRGVLRSPEEARQWLQEMDTDPAKLLKKARIGTPEQVWASLQELGESTGAQEMLVTTYAHDPLKRQQSYRLLAQAAGMTPQKEEG	soluble
MAELKALQNGSDIRGIALDTEEQTATLTATAVAEIAVGVVRWLQDKKQLPRKAQQRLTIAIGHDSRLTAEPIKQALVDTFLSLGIQVIDVGLATTPAMFMATQFPTLQCDAAIMITASHLPYYFNGLKFFTAEGGAEKEDIRYILSHTDPLTANENGTLMKQELLPIYAEHLVEKIRQGIHSPEEKPLQGFRIIVDAGNGAGGFFAEQVLQVLGADTTGSQFLEPDGHFPNHVPNPDNSEAMKSIQTAVLANQADLGIIFDTDVDRSAVVDQSGEVLNRNNLIAVLAAIVLKEAPGSYIVTNSPTSSHLKTFIEEKGGQQIRYISGYRNVINKMIELNHGGFQTPLAIETSGHAAFQENYNLDDGAYVVAKILMLLPELKQNNQTLGDLIATLKQPAETNEFRFKITAEDVTCYGQQVLRDFELFVENQADFAVDRENQEGVRGNVSGQYGSGWFLLRLSLHEPLLVLQVENDQSDKNACVIEKIATFLQKYEEIDSQQIEK	not soluble
MGKTNLAPGFRFHPTDVELVRYYLKRKVMGKKFQVDAIAEVDIYKFEPPDLPDKSCLGTGDLKWYFFCPREKKYPKGGKANRSTECGYWKTTGRDRDVSYNDEVTGKIRTLIYHYGKIPRGDRTDWVIHEYRLEDKVLAQKNVPQDTYVLCVLFKKNGLGPRHGSQYGAPFKEEDWSDKEEEYTQNHLVAGPSKETSLAAKASHSYAPKDGLTGVISESCVSDVPPLTATVLPPLTSDVIAYNPFSSSPLLEVPQVSLDGGELNSMLDLFSVDNDDCLLFDDFDYHNEVRHPDGFVNKEAPVFLGDGNFSGMFDLSNDQVVELQDLIQSPTPHPPSPPAQASIPDDSRSNGQTKDD	soluble
MSLTKDLLSELIQKHRSFNLSYSAYKQLYEGDHAILQQKQKEQYKPDNRLVVNFAKYIVDTFNGYFIGVPVQTSHENKQVSNYLELLDGYNDQDDNNAELSKICSIYGHGYELVFNDENAEVGITYLTPLEGFIVYDDSIRQKPLFAVRYFYNKDGVLEGSYSDASKITYFKDGEKDLEIGESDPHPFDGVPMIEYVENEERQSLLASVVTLINAFNKAISEKANDVEYFADAYLKILGAELDDETLKSLRDTRIINLKDTDAQQLTVEFLQKPDADATQEHLLDRLENLIFRTAMVANISDESFGTASGIALRYRLQAMDNLAKTKERKFMSGMNRRYKLIASYPTSKIGPKDWIGIKYKFTRNLPANLLEESQIAGNLAGIVSEETQVGVLSIVENPQKEIEKKNSDRPTLISRKAGGLNGQDTTTVLEGHHHHHH	not soluble
MLTSFGQILRKLFCIDCSERLLDMADKLGVSVAFLSSVKIGKKSVPVGIFVRTLENFSQQDLAEFKKLLEKVGKKRGTLYRHVGKSYSRTFIYTSRTLKKHT	not soluble
MWLFEESAVGFCSNSGVIDNKHAGYTGTGFIDTENAVGASIVWSLSAASAKTYTAQIRFGNGGTSARRATVVVNDSQIKTLDFPTNSNWTQWQTVNVDIPLKAGTNSIKLVAETADGLANIDSIRVTGNGITPAACPLEHHHHHH	soluble
MSLSADKLYIDKELSWLSFNERVLQEAADKTVPLIERIRFLGIFSNNLDEFYKVRFADVKRQILINRERGGNDISKHLLSRMQSKALKLNQDFDNLYNELILEMARRRIFLVNETQLDEIQLKWVKKYFHKEVLPHVTPIMLRDDIDVMQFLKDEYAYIAVEMRSGDEFKYALIEIPTDQLPRFVMLPEQKGKRRKTIILLDNIIRLCLDEIFRGFYDYDTLNGYAMKMTRDAEYDLRHEVEYSLLEQMSEGLSQRLTALPVRFVYEREMPEAMLKFLCYKLKISHYDSLIPGGRYHNFKDFISFPNVGRDYLENKPLPPMTCADFEGYANAFDAIRAQDILLHYPYHSFEHMTELVRQASFDPKVVSIKINIYRVAKDSKLMNSLVDAVHNGKRVVVVVELQARFDEEANIEWSRILTDAGVHVIFGVPGMKIHAKLLLITRKEGDEFVRYAHIGTGNFHERTARIYTDFALLTANQELAAEVRAVFGYIENPFRPVKFNHLIVSPRNSRTQIYRLLDSEIANAKAGKKAAITLKVNNLVDKGLINKLYGASAAGVKIRMIIRGMCSLVPGVEGVSDNIEIISIIDRFLEHPRVLVVHNDGNPQVFISSADWMERNIDHRIEVMAPIRDERLKQRIIDILNIQFIDTVKARRIDKEMSNQYVERGNRRKVRSQIAIYDYLKNVEKQTRKAKGQQETNDNSSQEGHHHHHH	soluble
MGHHHHHHSHMTAPFFPRILGAVAFLNQETEPLTMNLQHHFLIAMPALQDPIFRRSVVYICEHNTNGAMGIIVNKPLENLKIEGILEKLKITPEPRDESIRLDKPVMLGGPLAEDRGFILHTPPSNFASSIRISDNTVMTTSRDVLETLGTDKQPSDVLVALGYASWEKGQLEQEILDNAWLTAPADLNILFKTPIADRWREAAKLIGVDILTMPGVAGHA	soluble
MGSDKIHHHHHHMKKLALISLDGNGIYNLKYMPFLSELAEKGDIFTVDSIFPTLTDLVHTTVMTGVEPRHHWVVENGYYDRLSGVRVKFYEYDVAFNPHKVIKAPLIQDILRQRGVRIASVSGYTMPPFSNVDVRIFPPFFSSDELYRRHGRDWKKDVWVLNSALYLYEECKPDLLLVHFASIDGMQHDHGPESREALKAVETVDSAIRALWERLKDEYAFIIFADHGQEEVHTWVNLREYLRNKGIETLRVSSGGGVHVYLKDPREREDAYEVLRRAPGVKAVFLREDLPYLNAPVSGDLIVSAKEGFWFCHHRECKGIKGKSYWVRGMHGSLNERVVKVPLVLWNLEAKKEEATLYDIAPTILKFFGVEKRVEMIGKSLI	not soluble
MPAILETNPIAIRACILYEVRQKRPIFESFKNFCNAFGNDFMEYREFERWFYRFYHGNEDLDYDMSREPKTASLSELPIEILFKIVENLNFLDRLLLRNVSPCFRSIAEDHVNEVTNISVTSIPNHVHVCFYHESDYTDIICKRVDDDCVITKMSQYEDSKDWKIEGVSHVTVALNYLSRVLKSPKLKLEKLRLDFLEHNKEDTQCMEELLTVLENSEPHVLNIEFEGLNFHETSSVLKNLKNVEEIQLSMYSIQELSGIEKLVELEQWKTAKTLDISSHEDIEMDIKDLLHFQSIDVRLKSFSVQDAVKVKETLELRTSDFRSGTFRVLNTDTRKIGKVFNPKYTDAANNTFNFKTKNSSFEITMCSKEIYVKRKL	not soluble
MGSDKIHHHHHHMIMLTVSDYLAQPVVSPDVSIRYGDHPDQFGDLYLPAQVHPAPVVMMIHGGCWQAAYPLTPLGECCAALRARGYAVWNLEYRRLGNGGGWPSTFLDVAAGADHLRVLAEHYPLDLNRVVVVGHSAGGHLALWLATRPKLPPTSPLYIPHPLPVHGVVALAAVADLRRGVTATACGTACLELIDNEESRCAEASPHARLPLDIPHYHLVGGDDPIVPASYVAAFVDAARQAGDLAHLTIVPKCGHFELTTPHSQAWQTVVQTIDKACSLNRS	not soluble
MSTENTLSVADLARENVRNLVPYQSARRLGGNGDVWLNANEFPTAVEFQLTQQTLNRYPECQPKAVIENYAQYAGVKPEQVLVSRGADEGIELVIRAFCEPGKDAILYCPPTYGMYSVSAETIGVERRTVPALENWQLDLQGISDNLDGTKVVFVCSPNNPTGQLINPQDLRTLLELTRGKAIVVADEAYIEFCPQATLTGWLVEYPHLVILRTLSKAFALAGLRCGFTLANEEVINLLLKVIAPYPLSTPVADIAAQALCPQGINAMRDRVAQTVQERQYLVNALQQTACVEHVFDSETNYILARFTASSSVFKSLWDQGIILRDQNKQPSLSGCLRITVGTRQENQRVIDALRAEPV	not soluble
